The source of these data is patent publication US20180155451A1 (published 2018).

B1: GpH7-A5/GpH7-B3 variant P238_15Y/GpL16-k0 (heterodimerized antibody, He Ab) (antibody, human IgG1, kappa)
heavy 1: not shown
heavy 2: not shown
light: DIVMTQSPLSLPVTPGEPASISCQASESLVHSNRNTYLHWYLQKPGQSPQLLIYKVSNRFSGVPDRFSGSGSGTDFTLKISRVEAEDVGVYYCSQNTHVPPTFGQGTKVEIERTVAAPSVFIFPPSDEQLKSGTASVVCLLNNFYPREAKVQWKVDNALQSGNSQESVTEQDSKDSTYSLSSTLTLSKADYEKHKVYACEVTHQGLSSPVTKSFNRGEC
notes: Anti-glypican-3 IgG1; the alteration is in the GpH7-B3 chain only; also called P238Y
B2: GpH7-A5/GpH7-B3 variant S267_03V/GpL16-k0 (heterodimerized antibody, He Ab) (antibody, human IgG1, kappa)
heavy 1: not shown
heavy 2: not shown
light: B1 light
notes: Anti-glypican-3 IgG1; the alteration is in the GpH7-B3 chain only; also called S267V
B3: GpH7-A5/GpH7-B3 variant P238_10E/GpL16-k0 (heterodimerized antibody, He Ab) (antibody, human IgG1, kappa)
heavy 1: not shown
heavy 2: not shown
light: B1 light
notes: Anti-glypican-3 IgG1; the alteration is in the GpH7-B3 chain only; also called P238E
B4: GpH7-A5/GpH7-B3 variant P238_13S/GpL16-k0 (heterodimerized antibody, He Ab) (antibody, human IgG1, kappa)
heavy 1: not shown
heavy 2: not shown
light: B1 light
notes: Anti-glypican-3 IgG1; the alteration is in the GpH7-B3 chain only; also called P238S
B5: GpH7-A5/GpH7-B3 variant S267_07I/GpL16-k0 (heterodimerized antibody, He Ab) (antibody, human IgG1, kappa)
heavy 1: not shown
heavy 2: not shown
light: B1 light
notes: Anti-glypican-3 IgG1; the alteration is in the GpH7-B3 chain only; also called S267I
B6: GpH7-A5/GpH7-B3 variant S267_06M/GpL16-k0 (heterodimerized antibody, He Ab) (antibody, human IgG1, kappa)
heavy 1: not shown
heavy 2: not shown
light: B1 light
notes: Anti-glypican-3 IgG1; the alteration is in the GpH7-B3 chain only; also called S267M
B7: GpH7-A5/GpH7-B3 variant S239_03V/GpL16-k0 (heterodimerized antibody, He Ab) (antibody, human IgG1, kappa)
heavy 1: not shown
heavy 2: not shown
light: B1 light
notes: Anti-glypican-3 IgG1; the alteration is in the GpH7-B3 chain only; also called S239V
B8: GpH7-A5/GpH7-B3 variant S267_01G/GpL16-k0 (heterodimerized antibody, He Ab) (antibody, human IgG1, kappa)
heavy 1: not shown
heavy 2: not shown
light: B1 light
notes: Anti-glypican-3 IgG1; the alteration is in the GpH7-B3 chain only; also called S267G
B9: GpH7-A5/GpH7-B3 variant S239_01G/GpL16-k0 (heterodimerized antibody, He Ab) (antibody, human IgG1, kappa)
heavy 1: not shown
heavy 2: not shown
light: B1 light
notes: Anti-glypican-3 IgG1; also called S239G
B10: GpH7-A5/GpH7-B3 variant P238_09D/GpL16-k0 (heterodimerized antibody, He Ab) (antibody, human IgG1, kappa)
heavy 1: not shown
heavy 2: not shown
light: B1 light
notes: Anti-glypican-3 IgG1; the alteration is in the GpH7-B3 chain only; also called P238D
B11: GpH7-A5/GpH7-B3 variant S239_07I/GpL16-k0 (heterodimerized antibody, He Ab) (antibody, human IgG1, kappa)
heavy 1: not shown
heavy 2: not shown
light: B1 light
notes: Anti-glypican-3 IgG1; the alteration is in the GpH7-B3 chain only; also called S239I
B12: GpH7-A5/GpH7-B3 variant P238_07I/GpL16-k0 (heterodimerized antibody, He Ab) (antibody, human IgG1, kappa)
heavy 1: not shown
heavy 2: not shown
light: B1 light
notes: Anti-glypican-3 IgG1; the alteration is in the GpH7-B3 chain only; also called P238I
B13: GpH7-A5/GpH7-B3 variant S239_06M/GpL16-k0 (heterodimerized antibody, He Ab) (antibody, human IgG1, kappa)
heavy 1: not shown
heavy 2: not shown
light: B1 light
notes: Anti-glypican-3 IgG1; the alteration is in the GpH7-B3 chain only; also called S239M
B14: GpH7-A5/GpH7-B3 variant P238_14T/GpL16-k0 (heterodimerized antibody, He Ab) (antibody, human IgG1, kappa)
heavy 1: not shown
heavy 2: not shown
light: B1 light
notes: Anti-glypican-3 IgG1; the alteration is in the GpH7-B3 chain only; also called P238T
B15: GpH7-A5/GpH7-B3 variant P238_19Q/GpL16-k0 (heterodimerized antibody, He Ab) (antibody, human IgG1, kappa)
heavy 1: not shown
heavy 2: not shown
light: B1 light
notes: Anti-glypican-3 IgG1; the alteration is in the GpH7-B3 chain only; also called P238Q
B16: GpH7-A5/GpH7-B3 variant P238_08L/GpL16-k0 (heterodimerized antibody, He Ab) (antibody, human IgG1, kappa)
heavy 1: not shown
heavy 2: not shown
light: B1 light
notes: Anti-glypican-3 IgG1; the alteration is in the GpH7-B3 chain only; also called P238L
B17: GpH7-A5/GpH7-B3 variant P238_12R/GpL16-k0 (heterodimerized antibody, He Ab) (antibody, human IgG1, kappa)
heavy 1: not shown
heavy 2: not shown
light: B1 light
notes: Anti-glypican-3 IgG1; the alteration is in the GpH7-B3 chain only; also called P238R
B18: GpH7-A5/GpH7-B3 variant S239_05P/GpL16-k0 (heterodimerized antibody, He Ab) (antibody, human IgG1, kappa)
heavy 1: not shown
heavy 2: not shown
light: B1 light
notes: Anti-glypican-3 IgG1; the alteration is in the GpH7-B3 chain only; also called S239P
B19: GpH7-A5/GpH7-B3 variant P238_16H/GpL16-k0 (heterodimerized antibody, He Ab) (antibody, human IgG1, kappa)
heavy 1: not shown
heavy 2: not shown
light: B1 light
notes: Anti-glypican-3 IgG1; the alteration is in the GpH7-B3 chain only; also called P238H
B20: GpH7-A5/GpH7-B3 variant P238_20W/GpL16-k0 (heterodimerized antibody, He Ab) (antibody, human IgG1, kappa)
heavy 1: not shown
heavy 2: not shown
light: B1 light
notes: Anti-glypican-3 IgG1; the alteration is in the GpH7-B3 chain only; also called P238W

For one test, the target named is T1, FcγRIIIa extracellular domain with C-terminal His tag (human, UniProt P08637 17-208).
T1 construct: extracellular domain; also called FcgRIIIa; 3a; not shown: His tag at the C terminus
T1 sequence (P08637 17-208): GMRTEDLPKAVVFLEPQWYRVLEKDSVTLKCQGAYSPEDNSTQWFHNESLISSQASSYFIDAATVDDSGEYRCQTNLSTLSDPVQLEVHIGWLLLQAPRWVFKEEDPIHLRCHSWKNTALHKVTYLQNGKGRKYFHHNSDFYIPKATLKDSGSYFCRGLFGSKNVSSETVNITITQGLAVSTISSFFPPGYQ
The test is described as follows: SPR (Biacore), captured antibody, FcγR as analyte; relative to GpH7-A5/GpH7-B3/GpL16-k0 = 100. The protocol:
(§1) Analysis of interaction between objective antibody and the FcγR was carried out using Biacore T100 (GE Healthcare). HBS-EP+ (GE Healthcare) was used as the running buffer, and the measurement temperature was set to 25° C. Chips produced by immobilizing the antigen peptide by the amine coupling method to a Series S Sencor Chip CM5 (GE Healthcare), or alternatively, chips produced by allowing preliminarily biotinylated antigen peptides to interact with and immobilize onto a Series S Sensor Chip SA (certified) (GE Healthcare) were used. Antibodies of interest were captured onto an antigen peptide-immobilized chip, and allowed to interact to each FcγR diluted with running buffer. To regenerate and repeatedly use the chip, the antibodies captured on the chip were washed off by reacting 10 mM glycine-HCl, pH 1.5.
(§2) The FcγR-binding activity of each antibody was assessed primarily using as an indicator the FcγR-binding activity and dissociation constant for FcγR.
A general note: Surface plasmon resonance follows binding to a sensor surface in real time, without labels.
On to B1, for which the “He/Con_3a (IIIa binding)” value was 64.5 % of HeCon Ab.
The same measure, in the same setting: for B2 the value was 30.8 % of HeCon Ab; for B3, 105 % of HeCon Ab.
On the same count and under the same terms, the same measure for B4: 44.9 % of HeCon Ab.
On the same count and under the same terms, for B5 the value was 25.2 % of HeCon Ab; for B6, 66 % of HeCon Ab; for B7, 76.6 % of HeCon Ab.
Take B8: the “He/Con_3a (IIIa binding)” value is 53.8 % of HeCon Ab.
The same measure, in the same setting: for B9 the value was 76.2 % of HeCon Ab; for B10, 106 % of HeCon Ab.
In the case of B11, the “He/Con_3a (IIIa binding)” value was 79.3 % of HeCon Ab.
As to B12, the “He/Con_3a (IIIa binding)” value was 27.8 % of HeCon Ab.
Take B13: the “He/Con_3a (IIIa binding)” value was 78.2 % of HeCon Ab.
Regarding B14, the “He/Con_3a (IIIa binding)” value is 28 % of HeCon Ab.
Same read-out and setting: for B15 the value was 55.8 % of HeCon Ab; for B16, 75.5 % of HeCon Ab; for B17, 12.2 % of HeCon Ab.
The same measure, in the same setting: for B18 the value was 14.9 % of HeCon Ab.
Still for that read-out and setting: the same measure for B19: 30.7 % of HeCon Ab.
On to B20, for which the “He/Con_3a (IIIa binding)” value is 49.7 % of HeCon Ab.

The target in a further test is T2, FcγRIIb extracellular domain with C-terminal His tag (human, UniProt P31994 43-217).
T2 construct: extracellular domain; also called FcgRIIb; 2b; not shown: His tag at the C terminus
T2 sequence (looked up): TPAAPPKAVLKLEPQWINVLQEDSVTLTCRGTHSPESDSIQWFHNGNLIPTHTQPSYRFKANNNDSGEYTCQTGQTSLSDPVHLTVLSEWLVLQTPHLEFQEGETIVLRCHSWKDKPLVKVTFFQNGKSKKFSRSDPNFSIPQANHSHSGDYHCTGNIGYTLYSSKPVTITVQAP
The description is as above. The protocol:
as §1, §2
For the molecule B1, the “He/Con_2b (IIb binding)” value was 218 % of HeCon Ab.
Turning to B2, the “He/Con_2b (IIb binding)” value is 192 % of HeCon Ab.
On to B3, for which the “He/Con_2b (IIb binding)” value was 232 % of HeCon Ab.
Same read-out and setting: for B4 the value was 70.4 % of HeCon Ab; for B5, 192 % of HeCon Ab; for B6, 210 % of HeCon Ab.
Take B7: the “He/Con_2b (IIb binding)” value is 108 % of HeCon Ab.
Same read-out and setting: for B8 the value was 105 % of HeCon Ab.
As for B9, the “He/Con_2b (IIb binding)” value was 144 % of HeCon Ab.
Same read-out and setting: the same measure for B10: 221 % of HeCon Ab; for B11: 107 % of HeCon Ab; for B12: 80 % of HeCon Ab.
The same measure, in the same setting: for B13 the value was 101 % of HeCon Ab; for B14, 50.7 % of HeCon Ab.
Same read-out and setting: for B15 the value was 110 % of HeCon Ab; for B16, 204 % of HeCon Ab; for B17, 51.4 % of HeCon Ab.
B18: the “He/Con_2b (IIb binding)” value is 102 % of HeCon Ab.
Still for that read-out and setting: for B19 the value was 115 % of HeCon Ab; for B20, 123 % of HeCon Ab.
